Laboratory results from the DeepSol protein solubility set.

assay: soluble on expression in E. coli; label from the status in PepcDB or PDB records

Soluble on expression in E. coli, soluble:
VPEKFKLSTALMDVLGIEVETRPRIIAAIWHYVKARKLQNPNDPSFFNCDAALQKVFGEEKLKFTMVSQKISHHLSPPPP, MTAAQGNSNETLFSSYKMGRFDLSHRVVLAPMTRCRALNGVPNAALAEYYAQRTTPGGFLISEGTMVSPGSAGFPHVPGIYSDEQVEAWKQVVEAVHAKGGFIFCQLWHVGRASHAVYQPNGGSPISSTNKPISENRWRVLLPDGSHVKYPKPRALEASEIPRVVEDYCLSALNAIRAGFDGIEIHGAHGYLIDQFLKDGINDRTDQYGGSIANRCRFLKQVVEGVVSAIGASKVGVRVSPAIDHLDATDSDPLSLGLAVVGMLNKLQGVNGSKLAYLHVTQPRYHAYGQTESGRQGSDEEEAKLMKSLRMAYNGTFMSSGGFNKELGMQAVQQGDADLVSYGRLFIANPDLVSRFKIDGELNKYNRKTFYTQDPVVGYTDYPFLAPFSRL, MSLNTQLAIIRSKGKEHICYREEECFVDVSYPMVTFTKGEDDFEIVKCDHPSMEETFLYQESRLSIVIEMYHNGWPALSLKDPVTHEIYTVLTVNLEDKAAFSLPDRAFVDINNNPDAMEFLLSNKLAEDTGYRRQSGWVSYPMVTLNLPTFYRLDPHAFSAILNIREGHHHHHH, MSLHRSEKMKEIKEAYQQCGQIVGEYAPACFKALSYLPLKQRQASWAVLSFCHTAASADEKVLPAFEAKADHVYQRTNNGKQHLWKAFDHAYRTFTLESEPFREFIAAQKEDAKPYDDLDELLMYAYRTGGAAGLMLLPILTRRKQDQLKQAAVSLGLAIQLVRFLSDLGTDQQKNRIPRQVMQQFGYTEADLQKGTVNKAFTMTWEYIAFEAEAYLEECQDALPLFPQYSQKTVKAALHLHRAVLEKIRAKQHDVFQYHFALTETEVKQILSDIEGHHHHHH, MAGDPMAHITRFEAPWFLMISKKQYKWTVRPNAGPHSIEKSIPLAVVIRDYLKLAGTIREAKHIIFDGKVLVDGKVRKDYKYPVGLMDIVSIPSADLYFRVLPDNVRFMRFSKISADEARYKYVRIINKTTIKEGRIQLNLEDGRNILVDKETAKNFKTLMTLKIELPSQQILDSFTISERSYAIFVGGRNVGIHGIVKNINLSKFKSRKYSVITLESRDGNTYQTNIMNVMSIGREKSDLRVDLEHHHHHH, MTKEQIQIIKDCVPILQKNGEDLTNEFYKIMFNDYPEVKPMFNMEKQISGEQPKALAMAILMAAKNIENLENMRSFVDKVAITHVNLGVKEEHYPIVGACLLKAIKNLLNPDEATLKAWEVAYGKIAKFYIDIEKKLYDK, IQFTESCSMDQSAKEPLINYLDMEYFGTISIGSPPQNFTVIFDTGSSNLWVPSVYCTSPACKTHSRFQPSQSSTYSQPGQSFSIQYGTGSLSGIIGADQVSVEGLTVVGQQFGESVTEPGQTFVDAEFDGILGLGYPSLAVGGVTPVFDNMMAQNLVDLPMFSVYMSSNPEGGAGSELIFGGYDHSHFSGSLNWVPVTKQAYWQIALDNIQVGGTVMFCSEGCQAIVDTGTSLITGPSDKIKQLQNAIGAAPVDGEYAVECANLNVMPDVTFTINGVPYTLSPTAYTLLDFVDGMQFCSSGFQGLDIHPPAGPLWILGDVFIRQFYSVFDRGNNRVGLAPAVPWSHPQFEK, MRLVYGLGRSGLGVLRFLRKRGLPARFYDDRPREEEVREALALGFQPDWNLEEAYEEVVAAPGVPLDHPHLKRLAARGAKVLGEAELAYRLSPTPIVGITGTAGKTSTTLFTAHLLRAHGLRAREGGNVDPPLVSVVDEAEVAVAELSSFQLERVHAFRPRVAVLLNLGVDHLDRHGTVEAYHAAKLNLLKNLTPEDALVYNRLDPKVRRAAEASPARLYPFTPGSTPRETNLRAVLEATRAYLDLLGRPLDPGAVAEALRTLPEAPHRFQAFARKGGVVFIDDSIATRTEAVRAALEAVPAPIAWILGGEDKGADLAPLLPLLGRVRVALALGRDGPRFARALEGRTEVVVIAEKDGRTAMRKAVEEALSRLEQGSVLLAPLAASFDQFRDYKDRAQAFREAVFALGGEPWTPSSS, GSHSMRYFYTAMSRPGRGEPRFIAVGYVDDTQFVRFDSDAASPRTEPRPPWIEQEGPEYWDRNTQIFKTNTQTYRENLRIALRYYNQSEAGSHIIQRMYGCDLGPDGRLLRGHDQSAYDGKDYIALNEDLSSWTAADTAAQITQRKWEAARVAEQLRAYLEGLCVEWLRRYLENGKETLQRADPPKTHVTHHPVSDHEATLRCWALGFYPAEITLTWQRDGEDQTQDTELVETRPAGDRTFQKWAAVVVPSGEEQRYTCHVQHEGLPKPLTLRWEPHH, MIFPVARYALRWLRRPEDRAFSRAAMEMALRGVRKVLCVAEKNDAAKGIADLLSNGRMRRREGLSKFNKIYEFDYHLYGQNVTMVMTSVSGHLLAHDFQMQFRKWQSCNPLVLFEAEIEKYCPENFVDIKKTLERETRQCQALVIWTDCDREGENIGFEIIHVCKAVKPNLQVLRARFSEITPHAVRTACENLTEPDQRVSDAVDVRQELDLRIGAAFTRFQTLRLQRIFPEVLAEQLISYGSCQFPTLGFVVERFKAIQAFVPEIFHRIKVTHDHKDGIVEFNWKRHRLFNHTACLVLYQLCVEDPMATVVEVRSKPKSKWRPQALDTVELEKLASRKLRINAKETMRIAEKLYTQGYISYPRTETNIFPRDLNLTVLVEQQTPDPRWGAFAQSILERGGPTPRNGNKSDQAHPPIHPTKYTNNLQGDEQRLYEFIVRHFLACCSQDAQGQETTVEIDIAQERFVAHGLMILARNYLDVYPYDHWSDKILPVYEQGSHFQPSTVEMVDGETSPPKLLTEADLIALMEKHGIGTDATHAEHIETIKARMYVGLTPDKRFLPGHLGMGLVEGYDSMGYEMSKPDLRAELEADLKLICDGKKDKFVVLRQQVQKYKQVFIEAVAKAKKLDEALAQYFGNGTELAQQEDIYPAMPEPIRKCPQCNKDMVLKTKKNGGFYLSCMGFPECRSAVWLPDSVLEASRDSSVCPVCQPHPVYRLKLKFKRGSLPPTMPLEFVCCIGGCDDTLREILDLRFSGGPPRASQPSGRLQANQSLNRMDNSQHPQPADSRQTGSSKALAQTLPPPTAAGESNSVTCNCGQEAVLLTVRKEGPNRGRQFFKCNGGSCNFFLWADSPNPGAGGPPALAYRPLGASLGCPPGPGIHLGGFGNPGDGSGSGTSCLCSQPSVTRTVQKDGPNKGRQFHTCAKPREQQCGFFQWVDENTAPGTSGAPSWTGDRGRTLESEARSKRPRASSSDMGSTAKKPRKCSLCHQPGHTRPFCPQNR

Soluble on expression in E. coli, not soluble:
MGLVTSILGRREYRLLQNSVTKKHLCKFMGVEFDYNDLDEITEIRVGENIFDTFESYARFAMKDTMKSIFAECKAMKTCLARIEREKQTEASMNHKIRQCYITLRRLCQLYYKFYQDLEKLKIPEHAWNVPLVKKAEKSIVVLDHAIYKFKAKGNLDVKKFREEVSHQYNIIEEVLKQFKSMDEGEYVEMRMKEEMKTEEA, MPNDMTHIDKIQALAFSIGKKMQTELLEQMQATGLTPPQFYILKILDHYGASRATTLAKKMYVKPSAITVMIDRLIDQELVERYHDKDDRRVVIIELTKKGKARVEEAMTARNEHIAKYFSHLELQEREDLLRLFEKLETIICGTQEKKENN, MGSDKIHHHHHHLSQSTPDLLTKQLRYTDYLRANGIPFMKCVKPTDEALFTTIMDSIGQEWTCCLFHWIDGHHVTANTEQTAARMGQLARQLHDVSLHEQEIQFPFIDHTVTYQRWLGDLQRLSASRMPEPVQNSFQEYLTLAQQHLDTARLPKSSSLQPVISTDLNSLNVLWDSDQHIVGIVDHEHIGATDRVQDLAWLIKWYARTEGIDSHDVSGRLAKSLLTHYNSPTLLVPKEDPRLASLLWLSGCMNLHFVERTKQLAFDAENNPVGYDQFQLHLQTYRLRGERLVGLLT, MSEPMSERERWQLELDKLQRGLQGDPFAFLGPQRDPGGEGGVLRAYLPGAQRVELLDEDGATLAELEQSDPGSGLFQRHLERLPPRYRLRVHWPDGVQESEDPYAFGPLLGELDLYLFAEGNHRQLASCLGAQLTRHEGVEGVRFAVWAPNAVRVSVVGDFNGWDGRRHPMRRRYPSGVWELFVPRLGEGELYKYELQGHDGLLPLKADPLALACETPPGTASKTCAALRHEWRDQDWLARRAERQGYAAP, MGSDKIHHHHHHMKTQYFSDVDETVITTTLSNGLRLQVVPRPAYHKSYAIMTTDYGSIDTQFAPDGKQMVTYPAGIAHFLEHKLFEKEDHDAFDLFGETGASANAFTSATKTSFLFSTTTQLTKNLQILLDFVQTPFFSKASVAKEQGIIGSEIQMYQDDPGWRGYAGLLENLFPNHPAHVDVAGTVASIAQITPEMLYTIHRVFYQPSNMTLIVVGNIDADAIMAFVAANQAAKQFPAPQAIVRGVHADLQTDDIVPYRQLEMPISRPKTLVGIKGQVAIPMTAEGWRYQLTIRLLLEVLFGDSSQLYQDWYDRGLIDDSFDFDFTNQRSFSYGLVGGDTDDPHALSDAIKHVLLNAATQPDLTRDRVALIKRASLGKYYAGLNGLNGVANQLSALSFGQASLFDFPEILSSITLADLQAMIDQVFQAKALTVLDMIPEAD, MGSDKIHHHHHHMPRPRRSQVSVEDTPMYHCCSRVVRRAYLCGDDKFSGKNYDHRRGWVEAQLLKLAEVFAIDVAAYAVMSNHLHVVLSIDIYQANRWTGIEVINQWHLLFKGTDITQKFAKGETLEDYEALELTYTIALYRSRLSDISWFMRALNEPIARRANEEDECTGRFWEGRFKSQALLDEAAVLACMVYVDLNPIRSTIAKTPETSDFTSIKRRITAALNGTQPKALLPFVGNERKDMPKGLTFHLKDYLQLVEDTGKAVRNDKRGCISPNSHSILNRLNIPADNWLKIINEFGKLFKGPVGTLQELTAYCEHLEKQRRHYCHACQHLAAS, MFIKGVILSSYGVNGYARVKSISNNFCDFINLKNNKVLLKKSNSSSVEVKVVDVNIKGNSLFLKFEEIDTPEAVRPLIGFELWVDDSLASSLKEGEYYLGKLIGYAIVNNNKKLGEVVAFFEYLNSVFLEVRVGIKFFFIPFLSIYIGDINTQEKTIELKVLDLLKLEHHHHHH, MGSDKIHHHHHHAQYNKVYADITANMLVDMGFENVIWSEDEKERVYVLENTPWRLQGVGLAHAIDRIQKTGLPEKGKSCRIVVLDNNIPQISLIYTANPDSLKAAPGSYAARSAWDATYDLGDSWDKVKKEYRMNSSLFKVDVVVYPELYLKNLIITQIYQVLFNLSPAIEVSFWNGMKLTAQMVFPIYNDGYGPWAGKIHPGMVTLSQSFRLPYRTFARASIGLFNADRYGVDLAVTHHLKDERFSLEGRIGCTGTGSWQKFEYHYGTHQRVTWSLGGSFYWPKYNTQVSLKAEQYLLGEIGGRIDLIRHFRYCSIGFYAMKAQGALKNGGFRFQVALPPYKYKRKNVRVLPSDNWGMSYNAGNERYYYKGYKASPNDNIMQQNQFNPYFIKSELLNF, MGSDKIHHHHHHMIKRNAAKPVRVAPPMMEEQEVSTSTLQELLEKEETVSNLIFSKGREEGISKSYKSFKNCTFRNQTFSECKFRSSQLADIRFENCDLSNISFAESSLYRVEFIACKLLGTNLSETTMNHVLLHDCNASYINLAMSKMNQVRFSHCHFRNGSFNDCRFSSVAFDSCDLVEADFSHAPLRGIDLRTSRIGGITLNISDLKGAVITSLQAMDLLPLLGVIIED, MTNERVMQLIREAYEKNLTTLDLSENQLTQLPSEITELKNLTTLNLSGNQLTQLPSEIGELKSLTSFDLSVNQLTQLPPEIGELKNLTILNVYRNQLIQLLPEITELKNLTTLDLSLNKLTQLPPEIGELEHHHHHH
